Results published in the nanobody polyreactivity screen of Harvey et al. (2022).

test: yeast display, Sf9 membrane polyspecificity reagent, FACS + sequencing; frameworks hold sequencing errors
Outline: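 A nanobody's polyreactivity label depends on the gate it was sorted from. Yeast display cells were stained with 10% biotinylated, detergent-solubilized Sf9 membrane reagent for 1 hour at 4 °C, enriched on streptavidin microbeads and sorted by FACS. The low and high (top ~1%) gates were set on anti-HA fluorescence for expression and streptavidin fluorescence for reagent binding.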

Row | Sequence | polyreactivity (PSR sort gate)
1 | QVQHVESGGGLVQAGGSLRLSCAASGRTFGRNAMGWYRQAPGKESEFVASINQRGGCTYYADSVKGRFTISRDIAKNTVYLQMNSLKPEDTAVYYCAKYVYVGYVRQVPYFRYDYWGQGTQVTVSS | high polyreactivity
2 | QVQHVESGGGLVQAGGSLRLSCAASGRTFIINTMGWYRQAPGKERELVAAISKFGATTNYADSVKGRFTISRDNAKNTVYLQMNSLKPEDTAVYYCNARYSGYLRLDYWGQGTQVTVSS | low polyreactivity
3 | QVQHVESGGGLVQAGGSLRLSCAASGRTFNAYTMGWYRQAPGKERELVAAITSSGGNTYYADSVKGRFTISRDNAKNSVYLQMNSLKPEDTAVYYCNTVYLYGTHDYWGQGTQVTGSS | low polyreactivity
4 | QVQHVESGGGLVQAGGSLRLSCAASGRTFNFNTMGWYRQAPGKERELVASITSGGSTNYADSVKGRFTISRDKAKNTVYLQMNSLKPVDTAVYYCATRTTTFWFDYWVQGTQVTVSS | low polyreactivity
5 | QVQHVESGGGLVQAGGSLRLSCAASGRTFPINAMGWYRPAPGKERELVARISRTSGSTYYADSVKGRFTISRDNAKNTVYLQMNSLKPEDTAVYYCAAVRDKYFRASYGYWGQGTQVTVSS | high polyreactivity
6 | QVQHVESGGGLVQAGGSLRLSCAASGRTFSWYVMGWYRQSPGKERELVAAISWNGGRTYYADSVKGRFTISRDNAKNTVYLQMNSLKPEDTAVYYCAAKSYHGYPFDYWGQGTQVTVSS | high polyreactivity
7 | QVQHVESGGGLVQAGGSLRLSCAASGRTFVLYTMGWYRQAPGKERELVAAISGSGGRTYYADSVKGRFTISRDNAKNTVYLQMNSLKPEDTAVYYCAAYGQGLPLYGYWGQGTQVTVSS | high polyreactivity
8 | QVQHVESGGGLVQAGGSLRLSCAASGRTFVYYVMGWYRQAPGKESELVAAITGSGDSTYYADSVKGRFTISRDNAKNNVYLQMNSLKPEDTAVYYCAARRGTRYYDFGYYYWGQGTKVTVSS | high polyreactivity
9 | QVQHVESGGGLVQAGGSLRLSCAASGRTFYKNTMGWYRQAPGKERELVAGISQRGGRTYYADSVKGRFTISRDNAKNTVYLQMNSLEPEDTAVYYCNKRRAAGGFPFDYWGQGTQVTVSS | high polyreactivity
10 | QVQHVESGGGLVQAGGSLRLSCAASGRTFYRNAMGWSRQAPGKELELVAAITRSGGSTYYADSVKGRFTTSRDNAKNTVYLQMNSLQPEDTAVYYCARRLYPYRPTPYDYWGQGTQVTVSS | low polyreactivity
11 | QVQHVESGGGLVQAGGSLRLSCAASGRTFYYNDMGWSRQAPGKERELVAAISWSGVSTSYADSVKGRFTISRDNAKNTVYLQMNSLKPEDTAVYYCAADNDGWYFHITEYDYWGQGTQVTVSS | low polyreactivity
12 | QVQHVESGGGLVQAGGSLRLSCAASGRTSYTNAMGWSRPAPGKERELVAAINYSGGSTYYADSVKGRYTISRDNAKNTVYLQMNSLKPEDTAVYYCAAERYYWYTEMGYWGQGTQVTVSS | high polyreactivity
13 | QVQHVESGGGLVQAGGSLRLSCAASGRTVASYAMGWYRPAPGKERELVAVITRGGRTYYADSVKGRFTISRDNAKNTVYLQLNSLKPEDTAVYYCKAAYYSSSYLEDSWGHGTQVTVSS | high polyreactivity
14 | QVQHVESGGGLVQAGGSLRLSCAASGSIFAHYTMGWYRQAPGKERELVAVISRSGARTYYADSVKGRFTISRDNAKNTVYLQMNSLKPEDTAVYYCAADRNLEEDYWGLGTQVTVSS | low polyreactivity
15 | QVQHVESGGGLVQAGGSLRLSCAASGSIFASYAMGWYRLAAGKERELVAAISRRAVLTYYADSVKGRFTISRDNPKNTVYLQMNSLKPEDTAVYFCNARGYSGYQRYGYNYWGQGTQVTVSS | high polyreactivity
16 | QVQHVESGGGLVQAGGSLRLSCAASGSIFIPNAMGWYRQAPGKERELVAAITSGGRTYYADSVKGRFTISRDNAKNTVYLQMNSLKPEDTAVYYCAARSGYRYVESEYWGQGTQVTVSS | high polyreactivity

Row | Sequence | polyreactivity (PSR sort gate)
17 | QVQHVESGGGLVQAGGSLRLSCAASGSIFLPYAMGWYRQAPGKQRELVAAISDRGSTYYADSVKGRFTISRDNAQNTVYLHMNSVKAEDTAVYYCAKVYLLFVGALQFDYWGQGTQVTVSS | low polyreactivity
18 | QVQHVESGGGLVQAGGSLRLSCAASGSIFNRYAMGWYRQAPGKERELVAAITYNGGSTYYADSVKGRFTISRDNAKNTVYLQMNSLKPEDTAVYYCAAERYNGYDYWGQGTQVTVSS | high polyreactivity
19 | QVQHVESGGGLVQAGGSLRLSCAASGSIFVNNAMGWYRQAPGKERELVAAIRRSGGNTYYADSVKGRFTISRDNAKNTVYLQMNSLKPEDTAVYYCNVVRRADSIRAKSRDYWGQGTQVTVSS | high polyreactivity
20 | QVQHVESGGGLVQAGGSLRLSCAASGSIFYVNAMGWYRQAPGKERELVAAITRDGSTNYADSVKGRFTISRDNAKNTVYLQMNSLKPEDTAVYYCAADFVRYIDREDYWGQGTQVTVSS | low polyreactivity
21 | QVQHVESGGGLVQAGGSLRLSCAASGSIFYVYAMGWYRQAPGKERELVASINKSGGSTYYADSVKGRFTISRDNAKNTVYLQMNSLKPEDTAVYYCAARTGWPRVGFQYPAHVGFDYWGQGTQVTVSS | low polyreactivity
22 | QVQHVESGGGLVQAGGSLRLSCAASGSIFYYYTMGWYRQAPGKERELVAAITSGGSTYYADSVKGRFTISRDNAKNTVYIQMNSLKPDDTAVYYCAAEYHSFLWDMDYWGQGTQVTVST | high polyreactivity
23 | QVQHVESGGGLVQAGGSLRLSCAASGSIISYYAMGWSRQQPGKERELVAAITANGGSTSYADSVKGRFTISRDNAKNTVYLQMNSLKPEVTAVYYCAKESDYPYYVSTKGDYDYWGQGTQVTVSS | low polyreactivity
24 | QVQHVESGGGLVQAGGSLRLSCAASGSTFAFNTMGWYRQSPGKEWELVAGISSNGGRTYYADSVNGRFTISRDNAKNTVYLQMNSLKPEDTAVYYCNRASVFHYRWYYYWGQGTQVTVSS | high polyreactivity
25 | QVQHVESGGGLVQAGGSLRLSCAASGSTFAVYTMGWYRQAPGKERELSTSYADSVKGRFTISRDNAKNTVYLQMNSLKPEDTAVYYCNRDFYEFDSNSYRFDYWGQGTQVTVSS | low polyreactivity
26 | QVQHVESGGGLVQAGGSLRLSCAASGSTFDDNTMGWYRQATGKERELVAAITRSGGSTYYADSVKGRFTISRDNAKNTVYLQMNSLKPEDTAVYYCATYPYSPYYYVYVEPYDYWGQGTQVTVSS | low polyreactivity
27 | QVQHVESGGGLVQAGGSLRLSCAASGSTFDSNDMGWYRQAPGKEWELVPGITWSGASTYYADSVKGRFTISRDNAKNTVYLQMNSLKPEDTAVYYCAAGPWGTGHYVQGPVYYYRYDYWGQGTQVTVSS | low polyreactivity
28 | QVQHVESGGGLVQAGGSLRLSCAASGSTFDVYALGWDRQAPGKERELVAAISESGSSTYYADSVKGRFTISRDNAKHTVYLQMNSLKPEDTAVYSCNALYYDWHPEYQVIFSYFYYWGQGTQVTVSS | low polyreactivity
29 | QVQHVESGGGLVQAGGSLRLSCAASGSTFNSYDKGSYRQAPGKERELVAAISSSAASTYYADSVKGRFTISRDNAKKTGYLQMNSLKPEDTAVYYCAAYVYYTYPSCTVYSVSYIYDYWAQGTQVTVSS | low polyreactivity
30 | QVQHVESGGGLVQAGGSLRLSCAASGSTFSANAMGWYRQAPGKERELVAVIRRGGSTTYADSVKGRFTISRDNAKNTVYLQMNSLKPEDTAVYYCNARVTLGRPLFTYLVRYEYWGQGTQVTVSS | high polyreactivity
31 | QVQHVESGGGLVQAGGSLRLSCAASGSTFSKYAMGWYRLAPGKERELVAAINYGGTSTYYADSVKGRFTISRDNAKNTVYLQMNSLKPEDTAVYYCAVIYRRLYTGGQNPYDYWGQGTQVTVSS | high polyreactivity
